This is an account of results in patent US20240400703A1 (Genmab, published 2024).

For assay [1], the target named is T1, recombinant human OX40 fused to a His-tag (Acro Biosystems, cat. no. OX0-H5224) (human, UniProt P43489 29-214).
T1 construct: bought protein; also called sOX40; soluble OX40; not shown: His-tag
T1 sequence: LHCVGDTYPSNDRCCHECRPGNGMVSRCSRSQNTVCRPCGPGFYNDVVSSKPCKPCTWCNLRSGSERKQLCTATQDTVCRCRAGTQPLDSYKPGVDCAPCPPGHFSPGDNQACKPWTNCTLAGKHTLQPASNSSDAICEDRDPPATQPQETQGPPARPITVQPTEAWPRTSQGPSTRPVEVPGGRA
The assay can be described thus: BLI cross-block; first Ab (competitor): IgG1-CD134-007. How it is done: (§1) Amine Reactive 2nd Generation (AR2G) biosensors (Sartorius, cat. no. 18-5092) were activated for 300 s with a solution of 20 mM EDC (N-(3-Dimethylaminopropyl)-N-ethylcarbodiimide hydrochloride; Sartorius, cat. no. 18-1033) and 10 mM s-NHS (N-hydroxysulfosuccinimide sodium salt; Sartorius, cat. no. 18-1067). […] After a baseline measurement in Sample Diluent (Sartorius, cat. no. 18-1104) for 50 s, the AR2G biosensors containing immobilized antibody were loaded for 300 s with human OX40 fused to a His-tag (100 nM diluted in Sample Diluent; Acro Biosystems, cat. no. OX0-H5224). The association (300 s) of a second antibody (10 μg/mL in Sample Diluent) was determined. Sensors were regenerated by three cycles of exposure to 10 mM Glycine (Sigma-Aldrich, cat. no. 15527) buffer pH 2.5 for 5 s followed by neutralization in Sample Diluent for 5 s.
(§2) Data were acquired using Data Acquisition Software v12.0 (Sartorius) and analyzed with Data Analysis HT Software v12.0 (Sartorius). Data traces were corrected by subtraction of a reference curve (Sample Diluent instead of second antibody) in order to correct for the dissociation of antigen from the immobilized first antibody. The Y-axis was aligned to the start of the association step and Savitzky-Golay filtering was applied. The corrected association responses of the second antibodies were plotted in a matrix format (Table 5). Responses ≥0.1 nm were considered non-blocking antibody pairs, while responses <0.1 were considered blocking antibody pairs.

Assay [2] addresses T1, recombinant human OX40 fused to a …. The experiment in a line: BLI cross-block; first Ab (competitor): IgG1-CD134-MEDI0562. How it is done:
as §1, §2

For assay [3] the target is unchanged. The assay can be described thus: BLI cross-block; first Ab (competitor): IgG1-CD134-SF2. The protocol:
as §1, §2

Assay [4] shares this target. The experiment in a line: BLI cross-block; first Ab (competitor): IgG1-CD134-h3C8. The protocol:
as §1, §2

The target is the same in assay [5]. The assay can be described thus: BLI cross-block; first Ab (competitor): IgG1-CD134-GBR830. How it is done: (§3) Experiments were carried out while shaking at 1,000 RPM and at 30° C.
as §1, §2

Assay [6] has the same target. The assay can be described thus: BLI cross-block; first Ab (competitor): IgG1-CD134-A4453. How it is done: as §1, §2
For assay [7] the target is unchanged. The experiment in a line: BLI cross-block; first Ab (competitor): IgG1-CD134-003. How it is done:
as §3, §1, §2

Assay [8] shares this target. The assay can be described thus: BLI cross-block; first Ab (competitor): IgG1-CD134-49B4-RRE. The protocol: as §3, §1, §2
Assay [9] has the same target. The experiment in a line: BLI cross-block; first Ab (competitor): IgG1-CD134-ABBV368. The protocol: as §3, §1, §2
Assay [10] has the same target. The experiment in a line: BLI cross-block; first Ab (competitor): IgG1-CD134-11D4. How it is done: as §1, §2
Assay [11] shares this target. The assay can be described thus: BLI cross-block; first Ab (competitor): IgG1-CD134-RG7888. The protocol: as §1, §2
Assay [12] has the same target. The assay can be described thus: BLI cross-block; first Ab (competitor): IgG1-CD134-Hu106. How it is done: as §1, §2

B1: IgG1-CD134-003-HC6LC2-P329R-E345R (antibody)
heavy: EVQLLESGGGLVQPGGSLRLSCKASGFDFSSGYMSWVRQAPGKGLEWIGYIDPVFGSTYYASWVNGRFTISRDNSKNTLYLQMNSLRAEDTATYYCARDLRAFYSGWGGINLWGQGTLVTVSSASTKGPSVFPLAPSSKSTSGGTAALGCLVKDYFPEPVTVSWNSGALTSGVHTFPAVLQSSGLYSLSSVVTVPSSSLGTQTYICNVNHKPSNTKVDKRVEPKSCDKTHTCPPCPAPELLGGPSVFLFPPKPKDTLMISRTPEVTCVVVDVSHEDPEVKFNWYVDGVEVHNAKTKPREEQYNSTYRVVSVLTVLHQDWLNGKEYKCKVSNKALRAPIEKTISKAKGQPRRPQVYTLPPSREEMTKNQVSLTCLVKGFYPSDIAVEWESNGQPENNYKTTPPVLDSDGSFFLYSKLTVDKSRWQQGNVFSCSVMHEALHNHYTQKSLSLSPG
light: AAVLTQSPSSLSASVGDRVTITCQSSQIVVNNNFLSWYQQKPGKAPKLLIYDASNLASGVPDRFSGSGSGTDFTFTISSLQPEDIATYYCLGGYDDDAENAFGGGTKVEIKRTVAAPSVFIFPPSDEQLKSGTASVVCLLNNFYPREAKVQWKVDNALQSGNSQESVTEQDSKDSTYSLSSTLTLSKADYEKHKVYACEVTHQGLSSPVTKSFNRGEC
notes: humanized; human IgG1 with P329R and E345R (Eu numbering), kappa; also called IgG1-CD134-003-HC6LC2-RR
Regarding B1, the association response was -0.04 nm in [1]; 0.34 nm in assay [2]; 0.22 nm in [3]; 0.5 nm in [4]; 0.19 nm in assay [5]; 0.31 nm in assay [6]. Besides, the association response in assay [7] is 0.04 nm; in [8], 0.25 nm; in assay [9], 0.85 nm; in assay [10], 0 nm; in assay [11] it was 0.65 nm; in assay [12], 0.74 nm.

B2: IgG1-CD134-012 (antibody)
heavy: not shown
light: DIVMTQTPASVEAAVGGTVTIKCQASENIYSSLAWYQQKPGQPPKLLIYRTSTLASGVPSRFKGSGSGTQFTLTISDLESDDAATYYCQSYYHNSGGGYDYGFGGGTEVVAKRTVAAPSVFIFPPSDEQLKSGTASVVCLLNNFYPREAKVQWKVDNALQSGNSQESVTEQDSKDSTYSLSSTLTLSKADYEKHKVYACEVTHQGLSSPVTKSFNRGEC
notes: rabbit-human chimeric IgG1
With B2, the association response in [1] was found to be 0.82 nm; in assay [2], 0.23 nm; in assay [3] it was 0.14 nm; in [4], 0.35 nm; in assay [5] it was 0.16 nm; in assay [6] it was 0.22 nm. In addition, the association response in [7] was found to be 0 nm; in assay [8] it was 0.1 nm; in assay [9], 0.51 nm; in assay [10], 0 nm; in assay [11], 0.42 nm; in [12], 0.51 nm.

B3: IgG1-CD134-003 (antibody)
heavy: not shown
light: AAVLTQTPSPVSAAVGGTVTIKCQSSQIVVNNNFLSWYQQKPGQPPKLLIYDASNLASGVPDRFSGSGSGTQFTLTISGVQSDDAATYYCLGGYDDDAENAFGGGTEVVVQRTVAAPSVFIFPPSDEQLKSGTASVVCLLNNFYPREAKVQWKVDNALQSGNSQESVTEQDSKDSTYSLSSTLTLSKADYEKHKVYACEVTHQGLSSPVTKSFNRGEC
notes: rabbit-human chimeric IgG1, wild-type Fc; also called parental chimeric antibody
Turning to B3, the association response was -0.07 nm in assay [1]; 0.3 nm in [2]; 0.21 nm in assay [3]; 0.46 nm in [4]; 0.2 nm in [5]; 0.26 nm in [6]. In addition, the association response in assay [7] is 0.02 nm; in assay [8], 0.2 nm; in assay [9] it was 0.72 nm; in [10], 0.01 nm; in assay [11] it was 0.66 nm; in [12] it was 0.64 nm.

B4: IgG1-CD134-007 (antibody)
heavy: not shown
light: AQVLTQTPSPVSAAVGGTVTISCQSSESVWNNNWLAWYQQKPGQPPNLLIYEASTLASGVSSRFKGSGSGTQFTLTVSEVQSDDAATYYCQGGYYDSSPIWTFGGGTEVVVKRTVAAPSVFIFPPSDEQLKSGTASVVCLLNNFYPREAKVQWKVDNALQSGNSQESVTEQDSKDSTYSLSSTLTLSKADYEKHKVYACEVTHQGLSSPVTKSFNRGEC
notes: rabbit-human chimeric IgG1
For the molecule B4, the association response in [1] was 0.01 nm; in [2], 0.32 nm; in [3], 0.22 nm; in assay [4] it was -0.02 nm; in assay [5], 0 nm; in [6], 0.28 nm. In addition, the association response in assay [7] is -0.02 nm; in assay [8] it was 0 nm; in assay [9] it was -0.05 nm; in assay [10], 0.15 nm; in assay [11] it was 0.64 nm; in assay [12], 0 nm.
